From US20220396635A1 (UNIVERSIT T STUTTGART, published 2022)
Read-outs that look alike come from different tables or passages of the source.

T1: CEA (UniProt P06731 35-685)
T1 construct: whole, on cells
T1 sequence (looked up): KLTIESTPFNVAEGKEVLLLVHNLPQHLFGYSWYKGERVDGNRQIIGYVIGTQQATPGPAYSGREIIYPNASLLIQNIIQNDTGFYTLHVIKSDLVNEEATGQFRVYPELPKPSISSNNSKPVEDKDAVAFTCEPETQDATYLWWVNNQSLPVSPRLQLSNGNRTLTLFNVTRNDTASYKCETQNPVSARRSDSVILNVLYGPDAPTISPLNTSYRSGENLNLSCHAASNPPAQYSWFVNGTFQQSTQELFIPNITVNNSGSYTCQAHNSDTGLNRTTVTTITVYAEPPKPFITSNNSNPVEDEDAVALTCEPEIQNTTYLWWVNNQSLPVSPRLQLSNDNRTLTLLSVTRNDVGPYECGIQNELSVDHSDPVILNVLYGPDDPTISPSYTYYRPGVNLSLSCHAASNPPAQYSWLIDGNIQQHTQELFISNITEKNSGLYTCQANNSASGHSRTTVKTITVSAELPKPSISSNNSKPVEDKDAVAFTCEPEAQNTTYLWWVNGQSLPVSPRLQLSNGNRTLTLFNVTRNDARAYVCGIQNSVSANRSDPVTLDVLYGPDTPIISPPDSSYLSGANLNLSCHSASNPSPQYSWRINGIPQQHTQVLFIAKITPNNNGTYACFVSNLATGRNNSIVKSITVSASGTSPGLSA


Key:
EGFR [1] = target: T2, EGFR (UniProt P00533 25-1210, limits assumed); test: flow cytometry, serial dilution on SKBR-3 cells (EGFR-expressing), PE anti-human Fc detection
T2 construct: whole, on cells; the cell lines are human tumor lines
Procedure: (§1) Binding analysis of the trivalent, bispecific antibodies was performed by flow cytometry using tumor cell lines with different EGFR-expression levels (FIG. 20) (Table 12). Adherent cells were washed with PBS and shortly trypsinized at 37° C. Trypsin was quenched with FCS-containing medium and removed by centrifugation (500×g, 5 min.). Target cells (FaDu, LIM1215, SKBR-3, T-47-D, MCF-7 and Jurkat cells) at 1×10⁵ cells/well were incubated with a serial dilution of trivalent, bispecific antibodies for 1 h at 4° C. After removing excess of recombinant protein by washing with PBA (PBS, 2% FBS, and 0.02% sodium azide), bound protein was detected using PE-conjugated anti-human Fc mAb (Jackson ImmunoResearch Laboratories Inc). Fluorescence was measured using MACSquant VYB (Miltenyi Biotec) and data were analyzed using FlowJo (Tree Star). Relative median fluorescence intensities (MFI) were calculated as followed: relative MFI=((MFIₛₐₘₚₗₑ-(MFIdetection-MFIcells))/MFIcells).

EGFR [2] = target: T2, EGFR; test: flow cytometry, serial dilution on LIM1215 cells (EGFR-expressing), PE anti-human Fc detection
Procedure: as §1

EGFR [3] = target: T2, EGFR; test: cell-based or functional assay
EGFR [4] = target: T2, EGFR; test: flow cytometry, serial dilution on FaDu cells (EGFR-expressing), PE anti-human Fc detection
Procedure: as §1

EGFR [5] = target: T2, EGFR; test: flow cytometry, serial dilution on MCF-7 cells (EGFR-expressing), PE anti-human Fc detection
Procedure: as §1

EGFR [6] = target: T2, EGFR; test: flow cytometry, serial dilution on T-47-D cells (EGFR-expressing), PE anti-human Fc detection
Procedure: as §1

CD3 [7] = target: T3, CD3 (UniProt P07766 23-207); test: flow cytometry, serial dilution on Jurkat cells (CD3-expressing), PE anti-human Fc detection
T3 construct: whole, on cells; on cells it stands in the TCR/CD3 complex; also called CD3 on Jurkat cells
Procedure: as §1

CD3 [8] = target: T3, CD3; test: as above; remark: listed apart in the source
Procedure: (§2) Binding of trivalent, bispecific fusion proteins to CEA-expressing (LIM1215) and CD3-expressing (Jurkat) cell lines was analyzed by flow cytometry. 2×10⁵ cells/well were incubated with a serial dilution of trivalent, bispecific antibodies for 1 h at 4° C. followed by detection using a PE-conjugated anti-human Fc antibody (Jackson ImmunoResearch Laboratories Inc). […] Regarding the CEA-expressing cell line LIM1215, the trivalent, bispecific antibodies bound with EC₅₀ values in the nanomolar range (FIG. 16A) (Table 9).

CEA [9] = target: T1, CEA; test: flow cytometry, serial dilution on LIM1215 cells (CEA-expressing), PE anti-human Fc detection
Procedure: as §2

CEA [10] = target: T1, CEA; test: cell-based or functional assay
CEA [11] = target: T1, CEA; test: cell-based or functional assay; remark: listed apart in the source

Binder	EC50 (EGFR [1])	EC50 (EGFR [2])	EC50 of PBMC cytotoxicity on FaDu cells, E:T 5:1 (EGFR [3])	EC50 of PBMC cytotoxicity on SKBR-3 cells, E:T 5:1 (EGFR [3])	EC50 (EGFR [4])	EC50 (EGFR [5])	EC50 (EGFR [6])	EC50 (CD3 [7])	EC50 (CD3 [8])	EC50 (CEA [9])	EC50 of IL-2 release, PBMCs co-cultured with LIM1215 cells (CEA [10])	EC50 of PBMC cytotoxicity on LIM1215 cells, E:T 10:1 (CEA [11])
scDb/scFv-Fc (1-2)+1, trivalent bispecific anti-EGFRxanti-CD3 (bispecific antibody, also called scDbhu225xhuU3-Fc(hole)Δab + scFvhu225-Fc(knob)Δab) chain 1: EVQLVESGGGLVQPGGSLRLSCAASGFSLTNYGVHWVRQAPGKGLEWLGVIWSGGNTDYNTPFTSRFTISRDNSKNTLYLQMNSLRAEDTAVYYCARALTYYDYEFAYWGQGTTVTVSSGGGGSDIQMTQSPSSLSASVGDRVTITCRASQDIRNYLNWYQQKPGKAPKLLIYYTSRLHSGVPSRFSGSGSGTDFTFTISSLQPEDIATYYCQQGNTLPWTFGQGTKLEIKRGGGGSGGGGSGGGGSQVQLVQSGAEVKKPGSSVKVSCKASGGTFSGYTMNWVRQAPGQGLEWMGLINPYKGVSTYNGKFKDRVTITADKSTSTAYMELSSLRSEDTAVYYCARSGYYGDSDWYFDVWGQGTLVTVSSGGGGSDIQLTQSPSFLSASVGDRVTITCRASQSIGTNIHWYQQKPGKAPKLLIKYASESISGVPSRFSGSGSGTEFTLTISSLQPEDFATYYCQQNNNWPTTFGAGTKLEIKRAAADKTHTCPPCPAPPVAGPSVFLFPPKPKDTLMISRTPEVTCVVVDVSHEDPEVKFNWYVDGVEVHNAKTKPREEQYNSTYRVVSVLTVLHQDWLNGKEYKCKVSNKGLPSSIEKTISKAKGQPREPQVCTLPPSRDELTKNQVSLSCAVKGFYPSDIAVEWESNGQPENNYKTTPPVLDSDGSFFLVSKLTVDKSRWQQGNVFSCSVMHEALHNHYTQKSLSLSPGK chain 2: EVQLVESGGGLVQPGGSLRLSCAASGFSLTNYGVHWVRQAPGKGLEWLGVIWSGGNTDYNTPFTSRFTISRDNSKNTLYLQMNSLRAEDTAVYYCARALTYYDYEFAYWGQGTTVTVSSGGGGSGGGGSGGGGSDIQLTQSPSFLSASVGDRVTITCRASQSIGTNIHWYQQKPGKAPKLLIKYASESISGVPSRFSGSGSGTEFTLTISSLQPEDFATYYCQQNNNWPTTFGAGTKLEIKRAAADKTHTCPPCPAPPVAGPSVFLFPPKPKDTLMISRTPEVTCVVVDVSHEDPEVKFNWYVDGVEVHNAKTKPREEQYNSTYRVVSVLTVLHQDWLNGKEYKCKVSNKGLPSSIEKTISKAKGQPREPQVYTLPPCRDELTKNQVSLWCLVKGFYPSDIAVEWESNGQPENNYKTTPPVLDSDGSFFLYSKLTVDKSRWQQGNVFSCSVMHEALHNHYTQKSLSLSPGK	0.09 nM	0.2 nM	0.026 nM	0.126 nM	1.1 nM	0.03 nM	0.02 nM	9.6 nM	–	–	–	–
scDb/Fab-Fc (1-2)+1, trivalent bispecific anti-EGFRxanti-CD3 (bispecific antibody, also called scDbhu225xhuU3-Fc(hole)Δab + Fdhu225-Fc(knob)Δab + VLhu225-CLκ) EVQLVESGGGLVQPGGSLRLSCAASGFSLTNYGVHWVRQAPGKGLEWLGVIWSGGNTDYNTPFTSRFTISRDNSKNTLYLQMNSLRAEDTAVYYCARALTYYDYEFAYWGQGTTVTVSSGGGGSDIQMTQSPSSLSASVGDRVTITCRASQDIRNYLNWYQQKPGKAPKLLIYYTSRLHSGVPSRFSGSGSGTDFTFTISSLQPEDIATYYCQQGNTLPWTFGQGTKLEIKRGGGGSGGGGSGGGGSQVQLVQSGAEVKKPGSSVKVSCKASGGTFSGYTMNWVRQAPGQGLEWMGLINPYKGVSTYNGKFKDRVTITADKSTSTAYMELSSLRSEDTAVYYCARSGYYGDSDWYFDVWGQGTLVTVSSGGGGSDIQLTQSPSFLSASVGDRVTITCRASQSIGTNIHWYQQKPGKAPKLLIKYASESISGVPSRFSGSGSGTEFTLTISSLQPEDFATYYCQQNNNWPTTFGAGTKLEIKRAAADKTHTCPPCPAPPVAGPSVFLFPPKPKDTLMISRTPEVTCVVVDVSHEDPEVKFNWYVDGVEVHNAKTKPREEQYNSTYRVVSVLTVLHQDWLNGKEYKCKVSNKGLPSSIEKTISKAKGQPREPQVCTLPPSRDELTKNQVSLSCAVKGFYPSDIAVEWESNGQPENNYKTTPPVLDSDGSFFLVSKLTVDKSRWQQGNVFSCSVMHEALHNHYTQKSLSLSPGK heavy: EVQLVESGGGLVQPGGSLRLSCAASGFSLTNYGVHWVRQAPGKGLEWLGVIWSGGNTDYNTPFTSRFTISRDNSKNTLYLQMNSLRAEDTAVYYCARALTYYDYEFAYWGQGTTVTVSSASTKGPSVFPLAPSSKSTSGGTAALGCLVKDYFPEPVTVSWNSGALTSGVHTFPAVLQSSGLYSLSSVVTVPSSSLGTQTYICNVNHKPSNTKVDKKVEPKSCGTDKTHTCPPCPAPPVAGPSVFLFPPKPKDTLMISRTPEVTCVVVDVSHEDPEVKFNWYVDGVEVHNAKTKPREEQYNSTYRVVSVLTVLHQDWLNGKEYKCKVSNKGLPSSIEKTISKAKGQPREPQVYTLPPCRDELTKNQVSLWCLVKGFYPSDIAVEWESNGQPENNYKTTPPVLDSDGSFFLYSKLTVDKSRWQQGNVFSCSVMHEALHNHYTQKSLSLSPGK light: DIQLTQSPSFLSASVGDRVTITCRASQSIGTNIHWYQQKPGKAPKLLIKYASESISGVPSRFSGSGSGTEFTLTISSLQPEDFATYYCQQNNNWPTTFGAGTKLEIKRTVAAPSVFIFPPSDEQLKSGTASVVCLLNNFYPREAKVQWKVDNALQSGNSQESVTEQDSKDSTYSLSSTLTLSKADYEKHKVYACEVTHQGLSSPVTKSFNRGEC	0.1 nM	0.2 nM	0.05 nM	0.209 nM	0.2 nM	0.04 nM	0.03 nM	1 nM	–	–	–	–
scDb/Fab-Fc (2-1)+1, trivalent bispecific anti-CEAxanti-CD3 (bispecific antibody, human IgG1, kappa, also called scDbhuU3xCEA-Fc(hole)Δab + VHCEA-CH1-Fc(knob)Δab + VLCEA-CLκ) QVQLVQSGAEVKKPGSSVKVSCKASGGTFSGYTMNWVRQAPGQGLEWMGLINPYKGVSTYNGKFKDRVTITADKSTSTAYMELSSLRSEDTAVYYCARSGYYGDSDWYFDVWGQGTLVTVSSGGGGSDIELTQSPAIMSASPGEKVTITCSASSSVSYMHWFQQKPGTSPKLWIYSTSNLASGVPARFSGSGSGTSYSLTISRMEAEDAATYYCQQRSSYPLTFGAGTKLELKRGGGGSGGGGSGGGGSQVKLQQSGAELVRSGTSVKLSCTASGFNIKDSYMHWLRQGPEQGLEWIGWIDPENGDTEYAPKFQGKATFTTDTSSNTAYLQLSSLTSEDTAVYYCNEGTPTGPYYFDYWGQGTTVTVSSGGGGSDIQMTQSPSSLSASVGDRVTITCRASQDIRNYLNWYQQKPGKAPKLLIYYTSRLHSGVPSRFSGSGSGTDFTFTISSLQPEDIATYYCQQGNTLPWTFGQGTKLEIKRAAADKTHTCPPCPAPPVAGPSVFLFPPKPKDTLMISRTPEVTCVVVDVSHEDPEVKFNWYVDGVEVHNAKTKPREEQYNSTYRVVSVLTVLHQDWLNGKEYKCKVSNKGLPSSIEKTISKAKGQPREPQVCTLPPSRDELTKNQVSLSCAVKGFYPSDIAVEWESNGQPENNYKTTPPVLDSDGSFFLVSKLTVDKSRWQQGNVFSCSVMHEALHNHYTQKSLSLSPGK heavy: QVKLQQSGAELVRSGTSVKLSCTASGFNIKDSYMHWLRQGPEQGLEWIGWIDPENGDTEYAPKFQGKATFTTDTSSNTAYLQLSSLTSEDTAVYYCNEGTPTGPYYFDYWGQGTTVTVSSASTKGPSVFPLAPSSKSTSGGTAALGCLVKDYFPEPVTVSWNSGALTSGVHTFPAVLQSSGLYSLSSVVTVPSSSLGTQTYICNVNHKPSNTKVDKKVEPKSCDKTHTCPPCPAPPVAGPSVFLFPPKPKDTLMISRTPEVTCVVVDVSHEDPEVKFNWYVDGVEVHNAKTKPREEQYNSTYRVVSVLTVLHQDWLNGKEYKCKVSNKGLPSSIEKTISKAKGQPREPQVYTLPPCRDELTKNQVSLWCLVKGFYPSDIAVEWESNGQPENNYKTTPPVLDSDGSFFLYSKLTVDKSRWQQGNVFSCSVMHEALHNHYTQKSLSLSPGK light: DIELTQSPAIMSASPGEKVTITCSASSSVSYMHWFQQKPGTSPKLWIYSTSNLASGVPARFSGSGSGTSYSLTISRMEAEDAATYYCQQRSSYPLTFGAGTKLELKRRTVAAPSVFIFPPSDEQLKSGTASVVCLLNNFYPREAKVQWKVDNALQSGNSQESVTEQDSKDSTYSLSSTLTLSKADYEKHKVYACEVTHQGLSSPVTKSFNRGEC	–	–	–	–	–	–	–	–	6.1 nM	2.1 nM	3.5 nM	1.2 nM
